Laboratory results: PMC5383521 (Journal of molecular recognition : JMR, 2016)
Where a chain is given by its changes, count along the chain named. In names and notes the source's numbering stands.

B1: murine monoclonal antibody LA-2, wild type (antibody, V domains shown)
VH: QIQLVQSGPELKKPGETVKISCKASGYTFTDYSMYWVKQAPGKGLKRMGWINTETGEPTYADDFKGRFALSLDTSASTAYLHISNLKNEDTATYFCARGLDSWGQGTSVTVSS
VL: DIQMTQSPSSLSATLGGKVTITCKASQDINKYIAWYQHKPGKGPRLLIHYTSTLQPGNPSRFSGSGSGRDYSFSISNLEAEDIAIYYCLQYDNLQRTFGGGTKVEIK
B2: LA-2 H49A-Light (antibody, V domains shown)
VH: B1 VH
VL: B1 VL with H49A

What was measured:
[1] = target: murine monoclonal antibody LA-2, wild type (mouse); test: SPR
[2] = target: Outer surface protein A (OspA) from Borrelia burgdorferi B31, wild type (Borrelia burgdorferi B31, UniProt P0CL66); test: SPR

| Molecule | fold increase of affinity against wild type OspA [1] [fold] | binding result [2] |
| --- | --- | --- |
| OspA (B. burgdorferi B31) A215K (from UniProt P0CL66 17-273) (natural protein) | 7.5 | – |
| B1 | – | binds |
| B2 | – | no binding |
